These results are taken from doi:10.1101/2024.01.05.574393.

The term Kd denotes the equilibrium constant for the complex coming apart. Low readings indicate a tighter complex, high ones a looser complex.

The target in experiment [1] is HSPB1ACD (α-crystallin domain of HSPB1) (human). Kind of experiment: native MS.
For experiment [2], the target named is HSPB5ACD (α-crystallin domain of HSPB5) (human). Description: native MS.

Bounds are passed on as bounds.

On to “HSPB1 C-terminal peptide (cognate peptide of HSPB1ACD)”, for which, in experiment [1], the dissociation constant Kd is below 100 µM.

As for “HSPB5 C-terminal peptide (cognate peptide of HSPB5ACD)”, the Kd in experiment [2] was below 100 µM.
